Measured values: the supplement of paper PMC10567573

B1: CLK3 (parent)
chain: FGEDYYGPSRSRHRRRSRERGPYR
B2: SCNN1D (parent)
chain: FLGHHSFSVRPGTEATISIREDEV

Variants of: B1
Assay: protein stability index of a GFP-peptide fusion (GPS, HEK-293T) (PSI 1-6); higher = more stable
Conditions: c terminus: a fixed tail appended
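Also: lentivirally expressed fusions sorted by FACS into six bins by GFP to DsRed ratio, PSI derived from sequencing read proportions per bin multiplied by bin number.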

Protein stability index, by site and new letter:
R24: F 2.8 | I 2.68 | T 1.81 | P 3.48 | D 1.9 | H 2.67 | Q 2.14 | K 2.62 | M 2.85 | G 3.26 | S 2.46 | Y 2.35 | V 2.46 | C 1.92 | E 2.32 | L 1.96 | W 2.18 | A 2.02 | N 2.46
E19: V 4.11 | Y 3.94 | R 4.55 | P 4.39 | K 4.05 | G 4.06 | Q 3.2 | T 3.81 | I 3.96 | S 3.65 | M 4.15 | L 3.42 | D 3.87 | W 4.71 | F 4.17 | C 4.35 | N 3.95 | H 4.09
G21: L 2.91 | H 3.13 | T 2.53 | P 2.95 | K 3.15 | R 3.2 | E 2.11 | C 3.2 | Y 3.37 | I 2.93 | S 1.41 | Q 2.8 | V 2.39 | F 3.47 | A 2.69 | M 3.38 | N 2.33 | W 4.06 | D 2.47
R20: M 2.3 | P 2.65 | L 2.45 | F 3.04 | E 2.27 | Y 2.3 | A 2.47 | N 2.11 | C 2.72 | V 2.22 | G 2.21 | D 2.56 | K 2.62 | I 2.21 | Q 2.79 | H 2.44 | S 2.24 | W 2.85 | T 2.39
P22: T 2.82 | I 2.2 | N 2.54 | A 2.82 | V 3.03 | D 2.8 | H 2.65 | C 2.8 | R 1.97 | Q 2.65 | L 2.37 | W 3.26 | E 2.05 | S 2.21 | M 2.54 | Y 2.39 | F 2.62 | G 2.54 | K 2.19
Y23: V 3.15 | S 2.62 | R 2.11 | L 2.16 | P 2.61 | K 2.3 | Q 3.46 | E 2.35 | F 1.65 | I 2.31 | N 2.67 | M 2.48 | A 2.19 | T 2.27 | D 2.89 | H 2.38 | G 2.43 | C 2.47 | W 2.46

Variants of: B2
Assay: as above
Conditions: c terminus: a fixed tail appended

Protein stability index: each site, then its substitutions
F1: R 4.42 | A 3.92 | V 4.15 | G 4.59 | E 5.02 | D 4.78 | N 4.38 | I 4.02 | P 4.64 | Q 4.33 | H 4.49 | L 3.99 | C 3.57 | K 4.3 | S 4.38 | Y 1.97 | T 4.8 | W 2.77 | M 4.68
F7: C 3.6 | R 3.94 | Y 2.38 | D 4.41 | G 4.43 | H 4.17 | M 4.18 | T 4.81 | E 4.81 | N 4.38 | V 3.88 | K 4.54 | S 4.1 | P 4.44 | I 3.65 | L 4.01 | Q 3.98 | W 3.24 | A 4.31
S6: N 2.08 | Q 1.76 | A 3.88 | P 1.46 | E 2.73 | G 1.16 | T 2.02 | C 2.25 | K 1.7 | Y 2.88 | H 2.08 | F 2.92 | D 2.13 | W 1.85 | V 1.88 | R 2.19 | M 2.96
G12: W 1.42 | S 1.55 | K 1.71 | Y 1.15 | P 1.83 | I 1.54 | M 1.85 | V 1.57 | H 1.81 | A 2.2 | C 2.24 | N 2.05 | R 1.46 | L 1.71 | Q 1.56 | F 2.69 | E 1.88 | T 1.67 | D 2.35
S8: M 1.75 | A 3.59 | Y 1.86 | G 2.43 | P 3.49 | K 1.57 | D 3.02 | Q 1.78 | T 1.62 | I 2.04 | F 1.37 | C 4.76 | N 2.4 | V 1.8 | L 1.65 | R 1.96 | W 2.68 | H 2.12 | E 2.48
H4: T 2.16 | G 2.2 | D 3.7 | R 2.68 | M 1.58 | S 1.9 | Q 1.32 | C 1.39 | I 2.64 | K 2.16 | F 3.4 | Y 1.42 | L 2.08 | E 3.39 | A 2.74 | N 2.29 | P 1.7 | V 1.77
R10: H 2.3 | Q 2.49 | P 2.11 | L 1.41 | I 1.9 | W 1.63 | C 2.52 | V 2.41 | D 2.77 | T 1.92 | F 1.66 | A 1.56 | Y 1.63 | S 2.35 | M 2.03 | E 2.94 | G 2.04 | N 1.53 | K 2.33
H5: D 2.02 | E 1.78 | T 1.54 | V 1.33 | R 2.55 | K 3.06 | S 1.75 | L 2.28 | Q 1.25 | Y 1.89 | G 2.3 | C 1.53 | P 2.13 | A 2.46 | M 2.33 | W 3.19 | I 1.64 | N 1.71
L2: Q 1.95 | P 1.72 | F 2.93 | E 4.5 | R 4.48 | Y 3.44 | T 3.09 | V 2.64 | K 4.07 | H 1.33 | W 2.4 | A 1.66 | C 2.18 | N 3.15 | M 1.95 | D 5.03 | G 2.72 | I 2.44 | S 1.76
V9: Q 2.86 | G 3.44 | D 3.54 | C 2.08 | T 2.29 | I 2.26 | N 2.6 | M 2.42 | Y 2.84 | P 2.18 | E 2.83 | K 2.83 | R 3.8 | A 2.36 | W 1.64 | L 2.15 | F 2.33 | S 2.12 | H 3.09
G3: N 2.26 | F 3.48 | L 2.28 | T 2.23 | R 2.09 | C 2.51 | I 1.59 | V 1.64 | Y 3.25 | S 2.42 | K 3.02 | M 1.42 | P 4.02 | H 2.71 | E 2.58 | A 1.95 | D 2.77
P11: G 1.64 | R 2.02 | V 1.53 | K 1.93 | W 1.97 | I 2.14 | Q 1.99 | F 1.47 | A 1.53 | M 1.25 | E 2.14 | L 1.82 | H 1.7 | S 1.72 | T 1.59 | D 1.88 | Y 1.99 | N 1.98
